The target of test [1] is BoNT/B2 (Clostridium botulinum). Nature of the test: flow cytometry, yeast-displayed Fab, soluble toxin.
The target is the same in test [2]. As to the kind of experiment: KinExA flow fluorimetry, IgG in solution.
In test [3] the target is BoNT/B3 (Clostridium botulinum). As to the kind of experiment: KinExA flow fluorimetry, IgG in solution. On the technique in general: A kinetic exclusion assay measures how much of one partner remains free in solution.
For test [4], the target named is BoNT/B2 (Clostridium botulinum). Nature of the test: flow cytometry, yeast-displayed Fab against yeast-displayed scFv.
In test [5] the target is BoNT/B4 (Clostridium botulinum). Nature of the test: KinExA flow fluorimetry, IgG in solution.
Test [6] concerns the target BoNT/B2 (Clostridium botulinum). As to the kind of experiment: flow cytometry, yeast-displayed scFv, soluble toxin. (In flow cytometry, cells or beads pass a laser one at a time.)

B1: B11E8 Fab (Fab, V domains shown)
VH: EVQLVQSGGGVVQPGRSLRLSCAASGFIFRTYGMHWVRQAPGKGLEWVAFVSSDGNNKFYSDSVKGRFTISRDNAKNTLYLQMNSLETEDTAMYYCAKDRYPIDCSGGSCFSYGMDVWGQGTTVTVSS
VL: EIVLTQSPATLSVSPGERATLSCRASQSVSKFLAWYQQKRGQAPRLLIYGASTRATGIPARFSGSGSGTEFALTISSLQSEDFADYYCQQYDNWPITFGQGTRLEIKR
In turn, B1 had a Kd in test [1] of 0.166 nM.

B2: B11E8 IgG (antibody, V domains shown)
VH: EVQLVQSGGGVVQPGRSLRLSCAASGFIFRTYGMHWVRQAPGKGLEWVAFVSSDGNNKFYSDSVKGRFTISRDNAKNTLYLQMNSLETEDTAMYYCAKDRYPIDCSGGSCFSYGMDVWGQGTTVTVSS
VL: EIVLTQSPATLSVSPGERATLSCRASQSVSKFLAWYQQKRGQAPRLLIYGASTRATGIPARFSGSGSGTEFALTISSLQSEDFADYYCQQYDNWPITFGQGTRLEIKR
Consider B2, for which the Kd in test [2] is 0.0181 nM; in test [3], 0.0156 nM.

B3: B11 Fab (Fab, V domains shown)
VH: QVQLLQSAGGVVQPGRSLRLSCAASGFIFRTYGMHWVRQAPGKGLEWVAFVSSDGNNKFYSDSVKGRFTIPRDNAKNTLYLQMNSLETEDTAVYYCAKDRYPIDCSGGSCFSYGMDVWGQGTTVTVSS
VL: DIVMTQSPSTLSASVGDRVTVTCRASQSINSWLAWYQQKPGKAPKLLIYEASSLESGVPSRFSGSGSGTEFTLTISSLQPDDFATYYCQQYDSYWLTFGGGTKVEIKR
As to B3, the fold higher affinity than the scFv in test [4] stood at 1.46 fold.

B4: 2B25.1 IgG (antibody, V domains shown)
VH: QVQLQESGPGLVKPSQTLSLSCSVSGASITSGTFYWSWIRQHPGKDLEWIGYIYYSGTTYYNPSLKSRVTLSVDTSKNQFSLKVTSLTAADTAVYHCARGVPIYDSSGTYRGTYFDYWGQGTLVTVSS
VL: ESVLTQPPSVSAAPGQKVTISCSGSSSNIGNNYVSWYQQLPGTAPKLLIYDNNRRPSGIPDRFSGSKSGTSATLGITGLQTGDEADYYCGTWDSSLSEVVFGGGTKVTVLG
For B4, the figures for the Kd in test [2], in test [5] and in test [3] were 0.0532 nM, 0.03 nM and 0.0177 nM, respectively.

B5: 1B18 IgG (antibody, V domains shown)
VH: EVQLVQSGGGLVQPGGSRRLSCAASGFYFNAYWMTWVRQAPGKGLEWVANINLDGTEIYYLDSVKGRFTVSRDNVKNSVFLQMSSLRVEDTAVYFCARLEWGGRNGWVSPWGQGTLVTVSS
VL: DVVMTQSPSSVSASVGDRVTITCRASQSISSYLNWYQQRPGKAPKLLIFAASSLQSAVPSRFSGSGSGTDFTLTISSLQPEDFATYYCQQSYSTPPTFGQGTKVEIKR
In the case of B5, the results for the Kd in test [2], in test [5] and in test [3] were 0.817 nM, 0.021 nM and 0.972 nM, respectively.

B6: B11 scFv (scFv)
scFv: QVQLLQSAGGVVQPGRSLRLSCAASGFIFRTYGMHWVRQAPGKGLEWVAFVSSDGNNKFYSDSVKGRFTIPRDNAKNTLYLQMNSLETEDTAVYYCAKDRYPIDCSGGSCFSYGMDVWGQGTTVTVSSGGGGSGGGGSGGGGSDIVMTQSPSTLSASVGDRVTVTCRASQSINSWLAWYQQKPGKAPKLLIYEASSLESGVPSRFSGSGSGTEFTLTISSLQPDDFATYYCQQYDSYWLTFGGGTKVEIK
In turn, B6 came in with a Kd in test [6] of 2.11 nM. In other words, the single-digit nanomolar range.

B7: 2B23 IgG (antibody, V domains shown)
VH: EVQLLESGGGLVQPGGSLRLSCAASGFTFSNYPMSWVRQAPGKGLAWVSSLTASGDNTFYADSVKGRFTISRDNSNNTLYLQMHSLRAEDTAVYYCAKALVGRYDISTGYYRPVMDSWGQGTLVTVSS
VL: DIQMTQSPPSLSASVGDRVTITCRTSQGFTSALAWYQQKPGEPPKLLIYDASKLESGVPSRFSGSGSGTNFALTISSLQPEDFATYFCQQSNSYPLTFGGGTKVEIKR
For the molecule B7, the Kd in test [2] turned out to be 0.0453 nM; in test [5], 0.0552 nM; in test [3] it was 0.048 nM.

B8: B12.1 IgG (antibody, V domains shown)
VH: QVNLRESGGGVVQPGRSLRLSCAASGFTFSSYALHWVRQTPGKGLEWVALISYDGSNKYYADSVKGRFTISRDNSKNMLYLQMNSLRAEDTAVYYCAKDRSHYGDYVGYLDYWGQGTLVTVSS
VL: AYVLTQPPSVSVAPGKTAAITCEGNNVGNKNVHWYQQRPGQAPVLVVHDDSDRPSGIPERFSGSNSGNTATLTINRVEAGDEADYYCQVWDSSSAQWVFGGGTKLTVLG
Turning to B8, the Kd in test [2] was determined as 0.0162 nM; in test [5], 0.625 nM; in test [3], 0.0462 nM.

B9: B11E8 scFv (scFv)
scFv: EVQLVQSGGGVVQPGRSLRLSCAASGFIFRTYGMHWVRQAPGKGLEWVAFVSSDGNNKFYSDSVKGRFTISRDNAKNTLYLQMNSLETEDTAMYYCAKDRYPIDCSGGSCFSYGMDVWGQGTTVTVSSGGGGSGGGGSGGGGSEIVLTQSPATLSVSPGERATLSCRASQSVSKFLAWYQQKRGQAPRLLIYGASTRATGIPARFSGSGSGTEFALTISSLQSEDFADYYCQQYDNWPITFGQGTRLEIK
Consider B9, for which the Kd in test [6] amounted to 0.189 nM.

B10: 1B10.1 IgG (antibody, V domains shown)
VH: QVQLVESGGGVVQPGRSLRLSCAASGFTFSHYGMHWVRQSPGKGLEWVAVIWYDGRNPYYAASVKGRFTISRDNDKNTLYLQMNSLRAEDTAVYYCVKDLTRFHDTTFGVFEMWGPGTTVTVSS
VL: EIVLTQSPSFVSASVGDRVTITCRASQGISSWLAWYQQKPGKAPKLLIYAASSLQSGVPSRFSGSGSGTEFTLTISSLQPDDFATYYCQQYSSLYTFGQGTKVDIKR
As for B10, the Kd in test [2] turned out to be 0.00031 nM; in test [5], 0.00047 nM; in test [3], 1.2 nM.

B11: B6 scFv (scFv)
scFv: QVQLVQSGAEVKKPGESLVISCKASGDKDTFTSFWIAWVRQMPGKGLEWMGIIYAGDSDTRYSPSFQGHVNISVDRSTNTAYLQWSSLKASDTAMYYCARHDSRYKYFYFGMDVWGQGTTVTVSSGGGGSGGGGSGGGGSDVVMTQSPSSLSASVGDRITITCQAGQDISNFLNWYQQKPGKAPKLLIRDASNLETGVPSRFSGGGSGTHFTFTISSLHPEDIATYFCQQYDNLPYTFGQGTKLEIK
Molecule B11 displayed a Kd in test [6] of 1.77 nM.

B12: 2B30 scFv (scFv)
scFv: EVQLVESGGGVVQPGRSLRLSCAASGFTFRRNAIHWVRQAPGKGLEWVAVISYDGVNKYYAASVKGRFAISRDNAKNTLFLQMNSLRPEDSAIYYCARDVSEYGDYVGHFDYWGQGTLVTVSSGGGGSGGGGSGGGGSSYELMQLPSASGTPGQRVSISCSGSSSNIGSNPVNWYQQLPGTAPKLLIYSNNHRPSGVPDRFSGSKSGTSASLAISGLQSEDEADYYCAAWDGSLNGHVVFGGGTKLTVL
For B12, in test [6], the Kd was 0.19 nM.

B13: 1B22 IgG (antibody, V domains shown)
VH: QVQLQESGSRLVKPSQTLSLTCGVSGGSISSSSYSWSWIRQTPGKGLEWIGYIYHSGSTYYNPSLKSRVTMSVDKSRNQFSLNMSSVTAADTAVYYCARTAFYYENTGPIRCYLDFWGQGTLVTVSS
VL: DIQMTQSPSTLSASIGDRVTISCRASQSIQSWLAWYQQRPGEAPKLLIYSASTLQTGVPSRFSGSGSGTDFTLTISSLQPEDFATYYCQQYNSYPLTFGQGTKLEIK
With B13, the results for the Kd in test [2], in test [5] and in test [3] were 0.319 nM, 0.129 nM and 0.221 nM, respectively.

As a reminder, the Kd is the constant that tells how readily two partners part at equilibrium. A low value points to higher affinity.
